Measured values published in publication PMC11217727.

What was measured:
[1] = target: FGFR3 S249C stably expressed in BaF3 cells (human) (UniProt P22607); assay: nonreducing SDS-PAGE with Western blot
[2] = target: FGFR3 S249C stably expressed in FaDu head and neck cancer cells (human) (UniProt P22607); assay: nonreducing SDS-PAGE with Western blot

percent of FGFR3 present as dimer [1] | percent of FGFR3 present as dimer [2] | Substance
6% | – | FGFR3 S249C stably expressed in BaF3 cells (from UniProt P22607 23-806) (receptor)
– | 70% | FGFR3 S249C stably expressed in FaDu head and neck cancer cells (from UniProt P22607 23-806) (receptor)
